B1: CCDC6 (parent)
chain: ASVTIQARAEQEEEFISNTLFKKI
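Further: lentivirally expressed fusions sorted by FACS into six bins by GFP to DsRed ratio, PSI derived from sequencing read proportions per bin multiplied by bin number.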

Variants of: B1
Experiment: protein stability index of a GFP-peptide fusion (GPS, HEK-293T) (PSI 1-6); higher = more stable
Settings: c terminus: a fixed tail appended
For ASVTIFARAEQEEEFISNTLFKKI [Q6F], the protein stability index was 2.89.
Work on ASVTIGARAEQEEEFISNTLFKKI [Q6G] yielded a protein stability index of 3.73.
Work on ASVTIHARAEQEEEFISNTLFKKI [Q6H] yielded a protein stability index of 3.49.
ASVTIIARAEQEEEFISNTLFKKI [Q6I] showed a protein stability index of 1.97.
ASVTIKARAEQEEEFISNTLFKKI [Q6K] showed a protein stability index of 3.98.
ASVTILARAEQEEEFISNTLFKKI [Q6L] gave a protein stability index of 2.71.
Variant ASVTIMARAEQEEEFISNTLFKKI [Q6M] has a protein stability index of 2.54.
With ASVTINARAEQEEEFISNTLFKKI [Q6N] the protein stability index was 3.75.
In the case of ASVTIPARAEQEEEFISNTLFKKI [Q6P], the protein stability index is reported as 4.2.
ASVTIRARAEQEEEFISNTLFKKI [Q6R] gave a protein stability index of 3.26.
For ASVTISARAEQEEEFISNTLFKKI [Q6S], the protein stability index was 3.35.
In the case of ASVTITARAEQEEEFISNTLFKKI [Q6T], the protein stability index is reported as 3.53.
For ASVTIVARAEQEEEFISNTLFKKI [Q6V], the protein stability index was 2.71.
ASVTIWARAEQEEEFISNTLFKKI [Q6W] showed a protein stability index of 2.94.
Variant ASVTIYARAEQEEEFISNTLFKKI [Q6Y] has a protein stability index of 1.94.
ASVTIQCRAEQEEEFISNTLFKKI [A7C] showed a protein stability index of 2.45.
For ASVTIQDRAEQEEEFISNTLFKKI [A7D], the protein stability index was 4.31.
In the case of ASVTIQERAEQEEEFISNTLFKKI [A7E], the protein stability index is reported as 4.49.
With ASVTIQFRAEQEEEFISNTLFKKI [A7F] the protein stability index was 1.98.
Variant ASVTIQGRAEQEEEFISNTLFKKI [A7G] has a protein stability index of 3.66.
ASVTIQHRAEQEEEFISNTLFKKI [A7H] showed a protein stability index of 3.6.
Work on ASVTIQIRAEQEEEFISNTLFKKI [A7I] yielded a protein stability index of 1.93.
With ASVTIQKRAEQEEEFISNTLFKKI [A7K] the protein stability index was 3.69.
With ASVTIQLRAEQEEEFISNTLFKKI [A7L] the protein stability index was 2.12.
ASVTIQMRAEQEEEFISNTLFKKI [A7M] gave a protein stability index of 2.67.
In the case of ASVTIQNRAEQEEEFISNTLFKKI [A7N], the protein stability index is reported as 3.69.
Variant ASVTIQPRAEQEEEFISNTLFKKI [A7P] has a protein stability index of 3.67.
ASVTIQQRAEQEEEFISNTLFKKI [A7Q] showed a protein stability index of 3.93.
ASVTIQRRAEQEEEFISNTLFKKI [A7R] showed a protein stability index of 3.
With ASVTIQSRAEQEEEFISNTLFKKI [A7S] the protein stability index was 3.9.
In the case of ASVTIQTRAEQEEEFISNTLFKKI [A7T], the protein stability index is reported as 3.85.
For ASVTIQVRAEQEEEFISNTLFKKI [A7V], the protein stability index was 2.8.
With ASVTIQWRAEQEEEFISNTLFKKI [A7W] the protein stability index was 2.74.
In the case of ASVTIQYRAEQEEEFISNTLFKKI [A7Y], the protein stability index is reported as 2.8.
Work on ASVTIQAAAEQEEEFISNTLFKKI [R8A] yielded a protein stability index of 3.79.
Variant ASVTIQACAEQEEEFISNTLFKKI [R8C] has a protein stability index of 3.27.
With ASVTIQADAEQEEEFISNTLFKKI [R8D] the protein stability index was 4.23.
For ASVTIQAEAEQEEEFISNTLFKKI [R8E], the protein stability index was 4.55.
With ASVTIQAFAEQEEEFISNTLFKKI [R8F] the protein stability index was 2.59.
For ASVTIQAGAEQEEEFISNTLFKKI [R8G], the protein stability index was 4.13.
Work on ASVTIQAHAEQEEEFISNTLFKKI [R8H] yielded a protein stability index of 3.78.
With ASVTIQAIAEQEEEFISNTLFKKI [R8I] the protein stability index was 2.98.
ASVTIQAKAEQEEEFISNTLFKKI [R8K] showed a protein stability index of 3.79.
ASVTIQALAEQEEEFISNTLFKKI [R8L] gave a protein stability index of 3.03.
With ASVTIQAMAEQEEEFISNTLFKKI [R8M] the protein stability index was 3.12.
ASVTIQANAEQEEEFISNTLFKKI [R8N] gave a protein stability index of 3.69.
For ASVTIQAPAEQEEEFISNTLFKKI [R8P], the protein stability index was 4.
Variant ASVTIQAQAEQEEEFISNTLFKKI [R8Q] has a protein stability index of 4.14.
ASVTIQASAEQEEEFISNTLFKKI [R8S] gave a protein stability index of 4.05.
Variant ASVTIQATAEQEEEFISNTLFKKI [R8T] has a protein stability index of 3.58.
Work on ASVTIQAVAEQEEEFISNTLFKKI [R8V] yielded a protein stability index of 3.31.
With ASVTIQAWAEQEEEFISNTLFKKI [R8W] the protein stability index was 3.27.
Work on ASVTIQAYAEQEEEFISNTLFKKI [R8Y] yielded a protein stability index of 3.21.
ASVTIQARCEQEEEFISNTLFKKI [A9C] showed a protein stability index of 3.23.
Variant ASVTIQARDEQEEEFISNTLFKKI [A9D] has a protein stability index of 4.42.
Work on ASVTIQAREEQEEEFISNTLFKKI [A9E] yielded a protein stability index of 4.16.
ASVTIQARFEQEEEFISNTLFKKI [A9F] showed a protein stability index of 2.37.
Work on ASVTIQARGEQEEEFISNTLFKKI [A9G] yielded a protein stability index of 3.67.
For ASVTIQARHEQEEEFISNTLFKKI [A9H], the protein stability index was 3.17.
In the case of ASVTIQARIEQEEEFISNTLFKKI [A9I], the protein stability index is reported as 2.62.
ASVTIQARKEQEEEFISNTLFKKI [A9K] showed a protein stability index of 3.6.
In the case of ASVTIQARLEQEEEFISNTLFKKI [A9L], the protein stability index is reported as 2.5.
With ASVTIQARMEQEEEFISNTLFKKI [A9M] the protein stability index was 3.08.
ASVTIQARNEQEEEFISNTLFKKI [A9N] showed a protein stability index of 3.63.
With ASVTIQARPEQEEEFISNTLFKKI [A9P] the protein stability index was 3.87.
ASVTIQARQEQEEEFISNTLFKKI [A9Q] gave a protein stability index of 4.09.
ASVTIQARREQEEEFISNTLFKKI [A9R] showed a protein stability index of 3.61.
ASVTIQARSEQEEEFISNTLFKKI [A9S] showed a protein stability index of 3.79.
ASVTIQARTEQEEEFISNTLFKKI [A9T] gave a protein stability index of 3.68.
With ASVTIQARVEQEEEFISNTLFKKI [A9V] the protein stability index was 2.91.
With ASVTIQARWEQEEEFISNTLFKKI [A9W] the protein stability index was 2.27.
For ASVTIQARYEQEEEFISNTLFKKI [A9Y], the protein stability index was 2.72.
Work on ASVTIQARAAQEEEFISNTLFKKI [E10A] yielded a protein stability index of 3.06.
With ASVTIQARACQEEEFISNTLFKKI [E10C] the protein stability index was 2.1.
ASVTIQARADQEEEFISNTLFKKI [E10D] showed a protein stability index of 3.4.
ASVTIQARAFQEEEFISNTLFKKI [E10F] showed a protein stability index of 2.29.
Work on ASVTIQARAGQEEEFISNTLFKKI [E10G] yielded a protein stability index of 2.38.
With ASVTIQARAHQEEEFISNTLFKKI [E10H] the protein stability index was 3.25.
For ASVTIQARAIQEEEFISNTLFKKI [E10I], the protein stability index was 2.39.
Work on ASVTIQARAKQEEEFISNTLFKKI [E10K] yielded a protein stability index of 3.15.
For ASVTIQARALQEEEFISNTLFKKI [E10L], the protein stability index was 2.15.
Variant ASVTIQARAMQEEEFISNTLFKKI [E10M] has a protein stability index of 2.95.
ASVTIQARANQEEEFISNTLFKKI [E10N] gave a protein stability index of 3.1.
Variant ASVTIQARAPQEEEFISNTLFKKI [E10P] has a protein stability index of 2.83.
In the case of ASVTIQARAQQEEEFISNTLFKKI [E10Q], the protein stability index is reported as 3.22.
With ASVTIQARARQEEEFISNTLFKKI [E10R] the protein stability index was 2.95.
For ASVTIQARASQEEEFISNTLFKKI [E10S], the protein stability index was 3.14.
ASVTIQARATQEEEFISNTLFKKI [E10T] showed a protein stability index of 3.22.
In the case of ASVTIQARAVQEEEFISNTLFKKI [E10V], the protein stability index is reported as 2.27.
In the case of ASVTIQARAWQEEEFISNTLFKKI [E10W], the protein stability index is reported as 1.54.
With ASVTIQARAYQEEEFISNTLFKKI [E10Y] the protein stability index was 2.03.
Variant ASVTIQARAEAEEEFISNTLFKKI [Q11A] has a protein stability index of 3.52.
ASVTIQARAECEEEFISNTLFKKI [Q11C] gave a protein stability index of 2.97.
Variant ASVTIQARAEDEEEFISNTLFKKI [Q11D] has a protein stability index of 3.99.

— the supplement of paper PMC10567573
